Ends that are not written are not given here.
B1: 125I-labeled Lym-1 F(ab')2 fragment (antibody, from another filing, mouse IgG2a, V domains shown)
VH: QLKESGPGLVAPSQSLSITCTISGFSLTSYGVHWVRQPPGKGLEWLVVIWSDGSTTYNSALKSRLSISKDNSKSQVFLKMNSLQTDDTAIYYCASHYGSTLAFASWGHGTLVTVSA
VL: DIQMTQSPASLSASVGETVTIICRASVNIYSYLAWYQQKQGKSPQLLVYNAKILAEGVPSRFSGSGSGTQFSLKINSLQPEDFGSYYCQHHYGTFTFGSGTKLEIK
B2: Lym-1/B1 immunoconjugate (peptide, UniProt P60568 57-78, looked up, part only)
chain: TRMLTFKFYMPKKATELKHLQC
modifications: also: conjugated to murine antibody Lym-1
B3: Lym-1/3A immunoconjugate (peptide, UniProt P60568 64-78, looked up, part only)
chain: FYMPKKATELKHLQC
modifications: also: conjugated to murine antibody Lym-1
B4: Lym-1/E6 immunoconjugate (peptide, UniProt P60568 42-58, looked up, part only)
chain: QMILNGINNYKNPKLTR
modifications: also: conjugated to murine antibody Lym-1

Key:
[1] = target: nucleohistones expressed in the nucleus of mammalian cells; experiment: radioimmunoassay on paraformaldehyde-acetone-treated cells
[2] = target: variant of the HLA-Dr antigen expressed on the cell surface of human B-lymphocytes and malignant lymphomas (human); experiment: indirect cell binding assay
[3] = target: variant of the HLA-Dr antigen expressed on the cell surface of human B-lymphocytes and malignant lymphomas (human); experiment: live cell binding assay
[4] = target: nucleohistones expressed in the nucleus of mammalian cells; experiment: cell binding assay (printed as live cell binding assay)
[5] = target: variant of the HLA-Dr antigen expressed on the cell surface of human B-lymphocytes and malignant lymphomas (human); experiment: live cell radioimmunoassay on Raji cells

Row | Molecule | percent of the antibody binding reactivity retained against unconjugated antibody [2] | also measured
1 | 125I-labeled TNT-1 F(ab')2 fragment (antibody) | – | immunoreactivity [1]: > 80%
2 | Lym-1/3B immunoconjugate (from UniProt P60568 53-78) | > 75% | –
3 | Lym-1/4A immunoconjugate (from UniProt P60568 125-153) | > 75% | –
4 | Lym-1/4B immunoconjugate (from UniProt P60568 107-153) | > 75% | –
5 | Lym-1/A3 immunoconjugate (from UniProt P60568 57-92) | > 75% | –
6 | Lym-1/IL-2 immunoconjugate (from UniProt P60568 21-153) | – | percent of the antibody binding reactivity retained against unconjugated antibody [3]: > 75%
7 | TNT-1/IL-2 immunoconjugate (from UniProt P60568 21-153) | – | percent of the antibody binding reactivity retained against unconjugated antibody [4]: > 75%
8 | B1 | – | percent of radiolabeled preparation bound to cells (immunoreactivity) [5]: 80%
9 | B2 | > 75% | –
10 | B3 | > 75% | –
11 | B4 | > 75% | –

Reference: patent publication US20040156824A1
